Among the data in the supplement of paper PMC12042874 are amyloid nucleation score values, retold here.

± gives the uncertainty stated by the source.

The data set is described as follows: amyloid nucleation score (Sup35N fusion, yeast selection) (log enrichment); library NNK3; higher = more nucleation; inactive = no reads after selection. The method in brief:
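The nucleation score is a DiMSum log enrichment of output over input reads, centred on the mode score of non-aggregating sequences. Sequences under 100 input reads were excluded, and reads came from Illumina sequencing of plasmid inserts. Psi-negative yeast expressing Sup35N fused to peptides of 20 random codons were induced with 100 μM copper sulfate for 24 hours and grown 7 days at 30°C on medium lacking adenine and uracil. Random libraries had three technical output replicates.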
PFAEQRRL: the amyloid nucleation score result was “inactive”. Regarding YGMWHHYFGDLTLSSRLNHV, the amyloid nucleation score entry is “inactive”. In the case of GTMSNYPNGFSMSSSYFSTY it was “inactive”. In the case of KYYYVLGMQMYRHLYWTACV it was “inactive”; in that of HLRCFKMKFNSHFLVWGAGA, “inactive”; in that of VTCVVVVGVHVRRHGFQEYV, “inactive”. As for YNSFSDYYSVFTQHVRDS, the amyloid nucleation score result is “inactive”. Consider MSLVFRMSPHIQLVGWVHGR, for which the amyloid nucleation score result is “inactive”. Consider CGGAMMKN, for which the amyloid nucleation score result was “inactive”.

Regarding NISYKW, the amyloid nucleation score came out at 0.377 ± 0.34. In the case of CFYLDQSRFRSA, the amyloid nucleation score result was “inactive”. For WRRMTEPMSAKGLTNYLEST, the amyloid nucleation score entry was “inactive”. For the substance TLVIHIN, the amyloid nucleation score entry is “inactive”. Take ARSIFEVTRHEAAGRMSVFS: the amyloid nucleation score is -0.01 ± 0.96.

Take EFPASNLSMLGWN: the amyloid nucleation score entry is “inactive”.

For the substance SYLYVTKYVLFDR, the amyloid nucleation score entry is “inactive”. In the case of FFERSR it was “inactive”; in that of RLAFVHKMTLRMSRERYLAI, -0.009 ± 0.35. On to WMVGVKRSW, for which the amyloid nucleation score entry is “inactive”. Consider DMIVNYCTAQRSFVSIVSIK, for which the amyloid nucleation score entry was “inactive”.

Take SVRWMTGRFVGCRRNQVQFR: the amyloid nucleation score stood at 0.505 ± 0.38. In the case of LGTWFWVVVG it was “inactive”.

With WRQVL, the amyloid nucleation score result was “inactive”.

On to YIILCSIFSYWENMGHI, for which the amyloid nucleation score worked out at 2.78 ± 0.08. Turning to WSFCVSTREGSSNNFSRCGK, the amyloid nucleation score entry was “inactive”. In the case of LCHSSRGDIH it was “inactive”. In the case of ISKSHGYLYSNWKTCFSELS it was “inactive”. As for LKVFKWKISTLMKAAQPIAS, the amyloid nucleation score result was “inactive”. The same measure for LYDISGPM: “inactive”; for RYCVFSLT: “inactive”; for FCRIAVMFKSNQELYRMDNG: “inactive”. For LYVGEKLVHFLEARMD, the amyloid nucleation score entry is “inactive”. The same measure for EDLNPSSVLYRPSIDFM: “inactive”.

Regarding NIWNWNNRVLFCEAGMGTCI, the amyloid nucleation score result is “inactive”.

Take KPLVV: the amyloid nucleation score result is “inactive”. As for YRFGDILSVRSLQNFT, the amyloid nucleation score result is “inactive”. In the case of NMFCVPYVKVESGCIMKRGN it was 1.91 ± 0.06. Take YQLELSSGSM: the amyloid nucleation score is 0.116 ± 0.28. YLWTTLCKPRVDFRAEYRDL: the amyloid nucleation score amounted to 2.05 ± 0.058. Take DSQLFKICGLVCTTYVALCF: the amyloid nucleation score was -0.732 ± 0.59. In turn, VLRRSYYRVSRPELPIWSN returned an amyloid nucleation score of -0.153 ± 1.1.

As for QGAMVD, the amyloid nucleation score entry was “inactive”. On to HECKYFGVCGRSQGNRSWVA, for which the amyloid nucleation score entry is “inactive”. Turning to TFVKSLVGGFTRNLVFLAIL, the amyloid nucleation score result is “inactive”.

With INLNYDLKFGYVYHMLFT, the amyloid nucleation score entry is “inactive”. QQVVSLEGRRTKVTLTYQGS registered an amyloid nucleation score of 1.04 ± 0.11. In the case of NWSTIECMYMASVVLNARFG it was “inactive”.

As to GVDDSLLKMRETCSRFGLTV, the amyloid nucleation score entry was “inactive”. For the substance PKSYRSGSAVFLGFVSWYRW, the amyloid nucleation score result was “inactive”. For LFLKSLCCFRICTNFIKVEL, the amyloid nucleation score entry is “inactive”.

GKINLVTCFVCLSTPFKHSL returned an amyloid nucleation score of 1.74 ± 0.067. SNIMHQNVTCESFYCRSSLW had an amyloid nucleation score of 1.81 ± 0.067.

For the substance ASTQRMYMSLLVDGWVTIRL, the amyloid nucleation score entry was “inactive”. Consider TNMVMA, for which the amyloid nucleation score result is “inactive”. As for QHLLYSPIEPIVPSVWDIVD, the amyloid nucleation score entry was “inactive”.

Regarding GFSHANGHGTEKDFSSLIPV, the amyloid nucleation score entry is “inactive”. With YCVSMANKLTCLCKGNSYPN, the amyloid nucleation score was 2.4 ± 0.061. Consider TRHWDVRSRISRTLVCFGLK, for which the amyloid nucleation score result is “inactive”. In the case of YYIPFASFVSQTCY it was “inactive”; in that of QNGCRLMTCC, “inactive”; in that of ETESATQPVTVIGVSELIRL, “inactive”. As to NVSFILLYGQCSECTQDA, the amyloid nucleation score was 2.03 ± 0.067.

Consider SAARSNPW, for which the amyloid nucleation score was 0.311 ± 0.31. In the case of VIVCNECLG it was 0.546 ± 0.42.

Consider LIFWRPIGDEHYLWPLPFYL, for which the amyloid nucleation score entry was “inactive”. In the case of TLSCYECPVVVRILVVRNCV it was “inactive”.

Substance YMWKVVDCSPVVSTS displayed an amyloid nucleation score of -0.352 ± 1.3. Regarding WTMVSGDALTCYTMTTMVRR, the amyloid nucleation score result is “inactive”. As for STFMYVCWRPTYGSYYQTVR, the amyloid nucleation score result was “inactive”. Take HVFYPALI: the amyloid nucleation score entry was “inactive”. Consider YCIRVVVWYNRHYGYSLS, for which the amyloid nucleation score result is “inactive”. As for VEFSAIFFCTLLD, the amyloid nucleation score result was “inactive”.

For FSTVTYQGVTALVNQSSVTT, the amyloid nucleation score result is “inactive”.

Consider KRYVCSTVTMLNCQVR, for which the amyloid nucleation score entry was “inactive”.

As for CSIPFVWEIHHM, the amyloid nucleation score entry is “inactive”. In the case of IGRTLSHSATRLVCTDPFRR, the amyloid nucleation score result was “inactive”. Consider CLLPVSVTLTASFLCQHVRY, for which the amyloid nucleation score amounted to 0.004 ± 0.75.

Consider ASRGRRLCSLYTHEGGSS, for which the amyloid nucleation score entry was “inactive”.

In the case of SCSLRYGMTGWPESKTYTAF, the amyloid nucleation score result is “inactive”. On to KLVWRERICEDGFYIKTTFL, for which the amyloid nucleation score result was “inactive”.

For QFFIFFACLVLVVITLT, the amyloid nucleation score turned out to be 2.53 ± 0.07.

SFKFMYNSFRSNGDIFSFNR displayed an amyloid nucleation score of 2.35 ± 0.073. The same measure for MSLLS: “inactive”. For DLFKCGRGHVIFVLSRLLIS, the amyloid nucleation score is -0.459 ± 1.1. For NLESTNTMSYIWYRADSKCG, the amyloid nucleation score result is “inactive”.

As for IQKLSFYTVCFMYDWLLTFK, the amyloid nucleation score entry was “inactive”. For LGNSAKVVLRWVEGVGLGVA, the amyloid nucleation score entry was “inactive”.

EVLLFVFKEGTHLVGLW: the amyloid nucleation score result is “inactive”. On to KNGFRNVRKQRGAQKE, for which the amyloid nucleation score entry is “inactive”. Take CRNESLACSKMSPSQRRSYT: the amyloid nucleation score entry is “inactive”.

For the substance NHLIQIG, the amyloid nucleation score entry is “inactive”. In the case of YIVLMSLLFGM, the amyloid nucleation score entry is “inactive”. Take VGPLSDSVFMYGT: the amyloid nucleation score entry was “inactive”.

WTLFWNPLI: the amyloid nucleation score result is “inactive”. The same measure for FEYEKMLKAYGEGVIGSWLF: “inactive”.

Consider YCGEYYITGNMRLPLSTPSG, for which the amyloid nucleation score result is “inactive”. Take SNFGTNSIYMCTAMIPM: the amyloid nucleation score entry was “inactive”. Consider HCYWLVGSWRYFTALFEGGL, for which the amyloid nucleation score result is “inactive”. In the case of SRLMRKRISA, the amyloid nucleation score result is “inactive”. Regarding NNTVDDSVFWNELDGHTWLV, the amyloid nucleation score result is “inactive”.

For LNLGILACSGKRLSQSCRLT, the amyloid nucleation score entry is “inactive”.

Regarding CQLRGEFDSVAVNNVCIAML, the amyloid nucleation score entry was “inactive”. For the substance RTWDLDVGVLRLWVLSIG, the amyloid nucleation score result was “inactive”. In the case of HWGWVTSIESVVRRFCNNFC it was “inactive”; in that of YGWIDRS, “inactive”; in that of EWVALNSSYLWYCPVM, “inactive”. In the case of GSGVNWFNIVVVS, the amyloid nucleation score result was “inactive”. With YVWMVSYMFLDFLDSTLALP, the amyloid nucleation score result is “inactive”. For YIRATCDSLCVISVWVLRFL, the amyloid nucleation score entry was “inactive”. Take AGVWWVCRRGVFFALMLM: the amyloid nucleation score entry was “inactive”. LVAWCDIPNCCANVYCNSVD: the amyloid nucleation score turned out to be 1.85 ± 0.077. For the substance RLFSFAIFHENTMLGNCCTM, the amyloid nucleation score was 2.44 ± 0.063. The same measure for IHLVFREDITLVWVWNWIHV: “inactive”; for YCVYQWLSYSVCLFNLMECT: “inactive”. For the substance DFWLHCGDK, the amyloid nucleation score result was “inactive”.

Take YFFTHDFHVVLNFANCIWYL: the amyloid nucleation score stood at 2.99 ± 0.069.

For the substance QSDHTLPMCRSSLRICVSGR, the amyloid nucleation score was 1.75 ± 0.07. In the case of FLSFTSRNLTYFCDCRFSLI it was “inactive”; in that of MYSHRRGRKLRLLESFYNLS, “inactive”. The same measure for VSTYGWAVRWGVFWGSMTYT: “inactive”; for SMVNWFMLRTAVVVQSRVAV: “inactive”; for RHMPYNGLKNDKIFYILNYT: “inactive”. AYFDLWLM: the amyloid nucleation score entry was “inactive”. LDTVTCNSLETAFGSFKNWL: the amyloid nucleation score result is “inactive”.

As for MVMNYWSTCNYSWPEVVISG, the amyloid nucleation score result was “inactive”. Take MSGEFVV: the amyloid nucleation score result was “inactive”. As to LGSIRSSKCKNLVICIGPMC, the amyloid nucleation score was 2.41 ± 0.051. Consider IYCFRGNHFDCLGAGNMLQV, for which the amyloid nucleation score entry was “inactive”.

On to LLNWSYIKRLFLVGIKSGHR, for which the amyloid nucleation score result is “inactive”. As to TDRVCTPSVSDILVRWNNSQ, the amyloid nucleation score result is “inactive”. The same measure for SVSLYLNLVSLVYCLVCP: 1.26 ± 0.14.
